Assay results reported in doi:10.1101/2020.12.03.409334.

Target: 4R1N tau::mCherry::Cry2Olig chimera (UniProt P10636)
Assay: native gel or EMSA

4R1N tau::mCherry::Cry2Olig chimera (from UniProt P10636-7 1-412)
stoichiometry N: 2
